Experiments:
Assay in all cases: pull-down; 500 ng GST-tagged METTL21D with 100 ng His-tagged protein and Glutathione Sepharose 4B beads, 1 hour at 4°C, 50 mM NaCl, 50 mM HEPES-KOH pH 7.6, 0.1% NP-40, 0.5% charcoal-stripped FBS; bound His-tagged proteins detected by anti-6X His Western blot; AdoMet or AdoHcy present in Figure 6E; VCP and ASPSCR1 also added together (more binding)
Details in all cases: both partners purified
VCP-His = target: T1, VCP-His (human, UniProt P55072 1-806)
T1 construct: VCP/p97, human; also called His-tagged VCP; wild-type VCP-His; source: E. coli One Shot BL21 Star (DE3), purified (Ni-NTA Agarose)
T1 sequence (P55072 whole entry): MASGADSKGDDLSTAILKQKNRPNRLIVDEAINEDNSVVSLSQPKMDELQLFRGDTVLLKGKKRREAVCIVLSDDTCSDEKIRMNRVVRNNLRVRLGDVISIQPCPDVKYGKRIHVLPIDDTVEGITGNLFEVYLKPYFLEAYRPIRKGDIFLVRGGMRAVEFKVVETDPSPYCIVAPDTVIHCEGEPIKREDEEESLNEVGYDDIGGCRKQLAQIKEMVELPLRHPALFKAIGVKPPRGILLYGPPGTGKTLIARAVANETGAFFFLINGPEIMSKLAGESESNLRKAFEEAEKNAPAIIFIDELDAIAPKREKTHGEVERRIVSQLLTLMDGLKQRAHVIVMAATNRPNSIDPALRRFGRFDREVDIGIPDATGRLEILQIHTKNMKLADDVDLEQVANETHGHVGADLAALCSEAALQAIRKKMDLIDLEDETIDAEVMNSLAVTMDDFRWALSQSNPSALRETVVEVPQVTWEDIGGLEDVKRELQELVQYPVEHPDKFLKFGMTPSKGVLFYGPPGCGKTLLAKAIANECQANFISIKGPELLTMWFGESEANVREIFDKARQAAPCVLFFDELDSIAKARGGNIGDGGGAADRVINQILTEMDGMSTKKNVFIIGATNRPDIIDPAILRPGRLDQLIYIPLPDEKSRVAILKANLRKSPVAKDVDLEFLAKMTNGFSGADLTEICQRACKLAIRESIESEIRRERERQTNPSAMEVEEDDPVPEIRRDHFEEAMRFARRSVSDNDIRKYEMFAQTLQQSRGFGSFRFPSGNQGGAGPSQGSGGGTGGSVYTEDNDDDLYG

VCP-His R155H = target: T2, VCP-His R155H (human, UniProt P55072 1-806, R155H)
T2 construct: VCP/p97, human, with the IBMPFD- and ALS-linked substitution R155H; also called VCP mutant R155H; source: E. coli One Shot BL21 Star (DE3), purified (Ni-NTA Agarose)
T2 sequence (P55072 whole entry R155H): as the sequence (P55072 whole entry) above, with R155H counted along it

VCP-His R159G = target: T3, VCP-His R159G (human, UniProt P55072 1-806, R159G)
T3 construct: VCP/p97, human, with the ALS-linked substitution R159G; also called VCP mutant R159G; source: E. coli One Shot BL21 Star (DE3), purified (Ni-NTA Agarose)
T3 sequence (P55072 whole entry R159G): as the sequence (P55072 whole entry) above, with R159G counted along it

VCP-His R191Q = target: T4, VCP-His R191Q (human, UniProt P55072 1-806, R191Q)
T4 construct: VCP/p97, human, with the IBMPFD- and ALS-linked substitution R191Q; also called VCP mutant R191Q; source: E. coli One Shot BL21 Star (DE3), purified (Ni-NTA Agarose)
T4 sequence (P55072 whole entry R191Q): as the sequence (P55072 whole entry) above, with R191Q counted along it

ASPSCR1-His = target: T5, ASPSCR1-His (human, UniProt Q9BZE9 1-553)
T5 construct: ASPSCR1/UBXD9, human; also called full-length ASPSCR1; His-tagged ASPSCR1; source: E. coli One Shot BL21 Star (DE3), purified (Ni-NTA Agarose)
T5 sequence (looked up): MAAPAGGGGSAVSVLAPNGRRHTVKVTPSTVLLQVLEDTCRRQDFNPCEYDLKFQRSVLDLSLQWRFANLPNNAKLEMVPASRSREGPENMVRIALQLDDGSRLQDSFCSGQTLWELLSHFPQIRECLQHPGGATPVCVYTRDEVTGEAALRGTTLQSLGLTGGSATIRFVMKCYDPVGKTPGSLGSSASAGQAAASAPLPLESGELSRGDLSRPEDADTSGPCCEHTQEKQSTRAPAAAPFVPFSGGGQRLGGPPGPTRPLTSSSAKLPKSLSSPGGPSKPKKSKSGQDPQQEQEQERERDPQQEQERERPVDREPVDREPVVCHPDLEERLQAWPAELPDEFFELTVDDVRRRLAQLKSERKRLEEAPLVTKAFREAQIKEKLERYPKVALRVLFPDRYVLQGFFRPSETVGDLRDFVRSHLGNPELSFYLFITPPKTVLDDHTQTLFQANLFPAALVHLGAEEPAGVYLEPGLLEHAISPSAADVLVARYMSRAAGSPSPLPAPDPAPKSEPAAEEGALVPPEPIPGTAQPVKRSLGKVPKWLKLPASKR

[1] = target: T6, C-terminal fragment of ASPSCR1 (residues 280–553) (human, UniProt Q9BZE9 280-553)
T6 construct: ASPSCR1/UBXD9, human, residues 280-553; also called C-terminal half of ASPSCR1; source: E. coli One Shot BL21 Star (DE3), purified (Ni-NTA Agarose)
T6 sequence (looked up): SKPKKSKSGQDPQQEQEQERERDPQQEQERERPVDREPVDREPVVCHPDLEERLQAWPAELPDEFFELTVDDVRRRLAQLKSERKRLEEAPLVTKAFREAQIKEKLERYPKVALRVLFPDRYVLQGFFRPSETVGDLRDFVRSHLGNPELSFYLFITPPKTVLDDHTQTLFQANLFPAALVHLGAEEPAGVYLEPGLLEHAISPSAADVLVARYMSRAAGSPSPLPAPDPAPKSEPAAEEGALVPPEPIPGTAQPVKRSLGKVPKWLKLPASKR

Measured: binding result

B1: GST-METTL21D (enzyme, human, UniProt Q9H867 1-229, looked up)
chain: MADTLESSLEDPLRSFVRVLEKRDGTVLRLQQYSSGGVGCVVWDAAIVLSKYLETPEFSGDGAHALSRRSVLELGSGTGAVGLMAATLGADVVVTDLEELQDLLKMNINMNKHLVTGSVQAKVLKWGEEIEGFPSPPDFILMADCIYYEESLEPLLKTLKDISGFETCIICCYEQRTMGKNPEIEKKYFELLQLDFDFEKIPLEKHDEEYRSEDIHIIYIRKKKSKFPS
notes: METTL21D, human; also called GST-tagged METTL21D; wild type METTL21D; source: E. coli One Shot BL21 Star (DE3), purified (Glutathione Sepharose 4B)
binds: all assays above

Reference: PMC3547847, “A Newly Uncovered Group of Distantly Related Lysine Methyltransferases Preferentially Interact with Molecular Chaperones to Regulate Their Activity” (PLoS Genetics, 2013)
